Patent publication US20220177587A1, “METHODS AND USES OF VARIANT CD80 FUSION PROTEINS AND RELATED CONSTRUCTS” (Alpine Immune Sciences, Inc., priority 2018, published 2022)

Columns and labels:
human CTLA-4 (human) [1] = molecular target: human CTLA-4 (human) (UniProt P16410); experiment: flow cytometry, CHO cells expressing huCTLA4
human PD-L1 (human) [2] = molecular target: human PD-L1 (human) (UniProt Q9NZQ7); experiment: flow cytometry, CHO cells expressing huPD-L1
CD28 (human) [3] = molecular target: CD28 (human) (UniProt P10747); experiment: flow cytometry, Jurkat/IL2 reporter cells (CD28)
CD28 (human) [4] = molecular target: CD28 (human) (UniProt P10747); experiment: flow cytometry, Jurkat cells (CD28)
human PD-L1 (human) [5] = molecular target: human PD-L1 (human) (UniProt Q9NZQ7); experiment: flow cytometry, CHO cells stably expressing PD-L1
CD28 (human) [6] = molecular target: CD28 (human) (UniProt P10747); experiment: flow cytometry, Jurkat/IL2 reporter cells (endogenous CD28)
human CTLA-4 (human) [7] = molecular target: human CTLA-4 (human) (UniProt P16410); experiment: flow cytometry, CHO cells expressing huCTLA4; MFI ratio to WT CD80 ECD-Fc (R&D)
human PD-L1 (human) [8] = molecular target: human PD-L1 (human) (UniProt Q9NZQ7); experiment: flow cytometry, CHO cells expressing huPD-L1; MFI ratio to WT CD80 ECD-Fc (R&D)
human PD-L1 (human) [9] = molecular target: human PD-L1 (human) (UniProt Q9NZQ7); experiment: flow cytometry; binding to PD-L1 cells against binding of the same variant to CD28 cells
CD28 (human) [10] = molecular target: CD28 (human) (UniProt P10747); experiment: flow cytometry, Jurkat/IL2 reporter cells (endogenous CD28); MFI ratio to WT CD80 ECD-Fc (R&D)

Sequence of human PD-L1 (human) (Q9NZQ7 19-290): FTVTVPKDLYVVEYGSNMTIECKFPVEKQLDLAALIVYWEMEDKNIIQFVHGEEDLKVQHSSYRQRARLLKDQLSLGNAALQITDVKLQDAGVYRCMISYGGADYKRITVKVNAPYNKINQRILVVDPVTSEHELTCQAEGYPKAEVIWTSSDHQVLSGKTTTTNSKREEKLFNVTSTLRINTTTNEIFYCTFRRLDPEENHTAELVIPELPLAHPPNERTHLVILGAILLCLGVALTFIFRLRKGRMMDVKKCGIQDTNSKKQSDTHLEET
Sequence of human CTLA-4 (human) (P16410 36-223): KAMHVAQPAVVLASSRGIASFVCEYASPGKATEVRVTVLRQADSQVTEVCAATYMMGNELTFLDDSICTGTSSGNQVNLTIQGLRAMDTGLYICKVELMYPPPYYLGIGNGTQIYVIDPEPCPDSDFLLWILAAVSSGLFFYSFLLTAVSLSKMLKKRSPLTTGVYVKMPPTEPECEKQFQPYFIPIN

Binder	MFI at 33.3 nM (human CTLA-4 (human) [1]) [MFI]	MFI at 33.3 nM (human PD-L1 (human) [2]) [MFI]	MFI at 33.3 nM (CD28 (human) [3]) [MFI]	also measured
variant CD80 IgV-Fc V22L/Q27H/E35D/M47I/A71G (Fc fusion) VIHVTKEVKEVATLSCGHNVSLEELAHTRIYWQKDKKMVLTMMSGDINIWPEYKNRTIFDITNNLSIVILGLRPSDEGTYECVVLKYEKDAFKREHLAEVTLSVKAD	152000	43800	7270	–
variant CD80 IgV-Fc E35D/D46V/M47L/V68M/L85Q/E88D (Fc fusion) VIHVTKEVKEVATLSCGHNVSVEELAQTRIYWQKDKKMVLTMMSGVLNIWPEYKNRTIFDITNNLSIMILALRPSDEGTYECVVQKYDKDAFKREHLAEVTLSVKAD	–	137000	–	–
variant CD80 IgV-Fc V22D/E35D/M47L/L70M/L97Q (Fc fusion) VIHVTKEVKEVATLSCGHNVSDEELAQTRIYWQKDKKMVLTMMSGDLNIWPEYKNRTIFDITNNLSIVIMALRPSDEGTYECVVLKYEKDAFKREHQAEVTLSVKAD	–	–	527	–
variant CD80 IgV-Fc M47L/L85Q (Fc fusion) VIHVTKEVKEVATLSCGHNVSVEELAQTRIYWQKEKKMVLTMMSGDLNIWPEYKNRTIFDITNNLSIVILALRPSDEGTYECVVQKYEKDAFKREHLAEVTLSVKAD	–	5800	88.1	–
variant CD80 IgV-Fc (inert) H18Y/A26P/E35D/M47V/V68M/A71G (Fc fusion) VIHVTKEVKEVATLSCGYNVSVEELPQTRIYWQKDKKMVLTMMSGDVNIWPEYKNRTIFDITNNLSIMILGLRPSDEGTYECVVLKYEKDAFKREHLAEVTLSVKAD	–	–	–	MFI at 33.3 nM (CD28 (human) [4]): 6910 MFI; MFI at 33.3 nM (human PD-L1 (human) [5]): 51500 MFI
CD80 ECD (SEQ ID NO:2)-Fc (inert) with GSG4S linker (Fc fusion) VIHVTKEVKEVATLSCGHNVSVEELAQTRIYWQKEKKMVLTMMSGDMNIWPEYKNRTIFDITNNLSIVILALRPSDEGTYECVVLKYEKDAFKREHLAEVTLSVKADFPTPSISDFEIPTSNIRRIICSTSGGFPEPHLSWLENGEELNAINTTVSQDPETELYAVSSKLDFNMTTNHSFMCLIKYGHLRVNQTFNWNTTKQEHFPDNGSGGGGS	–	–	–	MFI at 33.3 nM (CD28 (human) [4]): 37 MFI; MFI at 33.3 nM (human PD-L1 (human) [5]): 35 MFI
variant CD80 IgV-Fc A26E/Q33R/E35D/M47L/L85Q/K86E (Fc fusion) VIHVTKEVKEVATLSCGHNVSVEELEQTRIYWRKDKKMVLTMMSGDLNIWPEYKNRTIFDITNNLSIVILALRPSDEGTYECVVQEYEKDAFKREHLAEVTLSVKAD	1280	76000	–	MFI at 33.3 nM (CD28 (human) [6]): 275 MFI; Fold change to WT CD80 (human CTLA-4 (human) [7]): 0.01 fold; Fold change to WT (human PD-L1 (human) [8]): 9.56 fold; Ratio of PDL1:CD28 (human PD-L1 (human) [9]): 276; Fold change to WT (CD28 (human) [10]): 0.04 fold
variant CD80 IgV-Fc A26E/Q33R/E35D/M47L/L85Q (Fc fusion) VIHVTKEVKEVATLSCGHNVSVEELEQTRIYWRKDKKMVLTMMSGDLNIWPEYKNRTIFDITNNLSIVILALRPSDEGTYECVVQKYEKDAFKREHLAEVTLSVKAD	1280	81500	–	MFI at 33.3 nM (CD28 (human) [6]): 264 MFI; Fold change to WT CD80 (human CTLA-4 (human) [7]): 0.01 fold; Fold change to WT (human PD-L1 (human) [8]): 10.3 fold; Ratio of PDL1:CD28 (human PD-L1 (human) [9]): 309; Fold change to WT (CD28 (human) [10]): 0.03 fold
variant CD80 IgV-Fc A26E/Q33L/E35D/M47L/L85Q (Fc fusion) VIHVTKEVKEVATLSCGHNVSVEELEQTRIYWLKDKKMVLTMMSGDLNIWPEYKNRTIFDITNNLSIVILALRPSDEGTYECVVQKYEKDAFKREHLAEVTLSVKAD	1170	62700	–	MFI at 33.3 nM (CD28 (human) [6]): 274 MFI; Fold change to WT CD80 (human CTLA-4 (human) [7]): 0.01 fold; Fold change to WT (human PD-L1 (human) [8]): 7.89 fold; Ratio of PDL1:CD28 (human PD-L1 (human) [9]): 229; Fold change to WT (CD28 (human) [10]): 0.04 fold
variant CD80 IgV-Fc A26E/Q33L/E35D/M47L (Fc fusion) VIHVTKEVKEVATLSCGHNVSVEELEQTRIYWLKDKKMVLTMMSGDLNIWPEYKNRTIFDITNNLSIVILALRPSDEGTYECVVLKYEKDAFKREHLAEVTLSVKAD	1320	60900	–	MFI at 33.3 nM (CD28 (human) [6]): 271 MFI; Fold change to WT CD80 (human CTLA-4 (human) [7]): 0.01 fold; Fold change to WT (human PD-L1 (human) [8]): 7.67 fold; Ratio of PDL1:CD28 (human PD-L1 (human) [9]): 225; Fold change to WT (CD28 (human) [10]): 0.04 fold
variant CD80 IgV-Fc H18Y/A26E/Q33L/E35D/M47L/L85Q (Fc fusion) VIHVTKEVKEVATLSCGYNVSVEELEQTRIYWLKDKKMVLTMMSGDLNIWPEYKNRTIFDITNNLSIVILALRPSDEGTYECVVQKYEKDAFKREHLAEVTLSVKAD	2090	76600	–	MFI at 33.3 nM (CD28 (human) [6]): 272 MFI; Fold change to WT CD80 (human CTLA-4 (human) [7]): 0.01 fold; Fold change to WT (human PD-L1 (human) [8]): 9.64 fold; Ratio of PDL1:CD28 (human PD-L1 (human) [9]): 282; Fold change to WT (CD28 (human) [10]): 0.04 fold
variant CD80 IgV-Fc Q33K/E35D/M47V/K89E/K93R (Fc fusion) VIHVTKEVKEVATLSCGHNVSVEELAQTRIYWKKDKKMVLTMMSGDVNIWPEYKNRTIFDITNNLSIVILALRPSDEGTYECVVLKYEEDAFRREHLAEVTLSVKAD	–	39100	–	MFI at 33.3 nM (CD28 (human) [6]): 276 MFI
variant CD80 IgV-Fc V22A/E35D/V68E/A71D (Fc fusion) VIHVTKEVKEVATLSCGHNVSAEELAQTRIYWQKDKKMVLTMMSGDMNIWPEYKNRTIFDITNNLSIEILDLRPSDEGTYECVVLKYEKDAFKREHLAEVTLSVKAD	437000	1350	–	MFI at 33.3 nM (CD28 (human) [6]): 14000 MFI
variant CD80 IgV-Fc H18Y/A26E/E35D/M47L/L85Q/D90G (Fc fusion) VIHVTKEVKEVATLSCGYNVSVEELEQTRIYWQKDKKMVLTMMSGDLNIWPEYKNRTIFDITNNLSIVILALRPSDEGTYECVVQKYEKGAFKREHLAEVTLSVKAD	231000	52400	3540	–
variant CD80 IgV-Fc E35D/M47L/A71G/L85Q (Fc fusion) VIHVTKEVKEVATLSCGHNVSVEELAQTRIYWQKDKKMVLTMMSGDLNIWPEYKNRTIFDITNNLSIVILGLRPSDEGTYECVVQKYEKDAFKREHLAEVTLSVKAD	–	–	1440	–
variant CD80 IgV-Fc E35D/M47V/A71G/E88D (Fc fusion) VIHVTKEVKEVATLSCGHNVSVEELAQTRIYWQKDKKMVLTMMSGDVNIWPEYKNRTIFDITNNLSIVILGLRPSDEGTYECVVLKYDKDAFKREHLAEVTLSVKAD	212000	37100	6240	–
variant CD80 IgV-Fc E35D/A71G (Fc fusion) VIHVTKEVKEVATLSCGHNVSVEELAQTRIYWQKDKKMVLTMMSGDMNIWPEYKNRTIFDITNNLSIVILGLRPSDEGTYECVVLKYEKDAFKREHLAEVTLSVKAD	184000	34100	–	–
variant CD80 IgV-Fc E35D/M47V/A71G (Fc fusion) VIHVTKEVKEVATLSCGHNVSVEELAQTRIYWQKDKKMVLTMMSGDVNIWPEYKNRTIFDITNNLSIVILGLRPSDEGTYECVVLKYEKDAFKREHLAEVTLSVKAD	–	36200	6360	–
variant CD80 IgV-Fc V22D/E35D/M47L/L85Q (Fc fusion) VIHVTKEVKEVATLSCGHNVSDEELAQTRIYWQKDKKMVLTMMSGDLNIWPEYKNRTIFDITNNLSIVILALRPSDEGTYECVVQKYEKDAFKREHLAEVTLSVKAD	256000	–	542	–
variant CD80 IgV-Fc H18Y/E35D/N48K (Fc fusion) VIHVTKEVKEVATLSCGYNVSVEELAQTRIYWQKDKKMVLTMMSGDMKIWPEYKNRTIFDITNNLSIVILALRPSDEGTYECVVLKYEKDAFKREHLAEVTLSVKAD	261000	–	–	–
variant CD80 IgV-Fc E35D/M47V/N48T/L85Q (Fc fusion) VIHVTKEVKEVATLSCGHNVSVEELAQTRIYWQKDKKMVLTMMSGDVTIWPEYKNRTIFDITNNLSIVILALRPSDEGTYECVVQKYEKDAFKREHLAEVTLSVKAD	–	35500	692	–
variant CD80 IgV-Fc E35D/D46E/M47V/A71D/D90G (Fc fusion) VIHVTKEVKEVATLSCGHNVSVEELAQTRIYWQKDKKMVLTMMSGEVNIWPEYKNRTIFDITNNLSIVILDLRPSDEGTYECVVLKYEKGAFKREHLAEVTLSVKAD	275000	32400	–	–
variant CD80 IgV-Fc E35D/D46E/M47V/A71D (Fc fusion) VIHVTKEVKEVATLSCGHNVSVEELAQTRIYWQKDKKMVLTMMSGEVNIWPEYKNRTIFDITNNLSIVILDLRPSDEGTYECVVLKYEKDAFKREHLAEVTLSVKAD	–	549	–	–
variant CD80 IgV-Fc E35D/T41S/M43I/A71G/D90G (Fc fusion) VIHVTKEVKEVATLSCGHNVSVEELAQTRIYWQKDKKMVLSMISGDMNIWPEYKNRTIFDITNNLSIVILGLRPSDEGTYECVVLKYEKGAFKREHLAEVTLSVKAD	208000	–	–	–
variant CD80 IgV-Fc E35D/T41S/M43I/M47V/A71G (Fc fusion) VIHVTKEVKEVATLSCGHNVSVEELAQTRIYWQKDKKMVLSMISGDVNIWPEYKNRTIFDITNNLSIVILGLRPSDEGTYECVVLKYEKDAFKREHLAEVTLSVKAD	–	44400	2840	–
variant CD80 IgV-Fc E35D/T41S/M43I/M47L/A71G (Fc fusion) VIHVTKEVKEVATLSCGHNVSVEELAQTRIYWQKDKKMVLSMISGDLNIWPEYKNRTIFDITNNLSIVILGLRPSDEGTYECVVLKYEKDAFKREHLAEVTLSVKAD	209000	–	3100	–
variant CD80 IgV-Fc E35D/K37E/M47V/N48D/L85Q/D90N (Fc fusion) VIHVTKEVKEVATLSCGHNVSVEELAQTRIYWQKDKEMVLTMMSGDVDIWPEYKNRTIFDITNNLSIVILALRPSDEGTYECVVQKYEKNAFKREHLAEVTLSVKAD	–	26500	–	–
